Test results published in PMC10466376.

What was measured:
Test in all cases: potentiometry
[1] = biological target: Lys9 (position 9, …); settings: 298 K; 0.1 M NaClO4; none (4 mM HClO4 / 100 mM NaClO4); Zn(II)-bound peptide, mononuclear complex, Zn:peptide 1:1 (supplement captions state 0.9:1), peptide 0.5 mM
[2] = biological target: Cterm15 (position 15, SKGHFH-----); settings: 298 K; 0.1 M NaClO4; none (4 mM HClO4 / 100 mM NaClO4); metal-free peptide, 0.5 mM, disordered
[3] = biological target: Glu3 (position 3, ---KQEGRDHD); settings: 298 K; 0.1 M NaClO4; none (4 mM HClO4 / 100 mM NaClO4); metal-free peptide, 0.5 mM, disordered
[4] = biological target: Lys1 (position 1, -----KQEGRD); settings: 298 K; 0.1 M NaClO4; none (4 mM HClO4 / 100 mM NaClO4); Zn(II)-bound peptide, mononuclear complex, Zn:peptide 1:1 (supplement captions state 0.9:1), peptide 0.5 mM
[5] = biological target: Nterm1 (position 1, -----KQEGRD); settings: 298 K, 0.1 M NaClO4, none (4 mM HClO4 / 100 mM NaClO4)
[6] = biological target: Lys11 (position 11, …-); settings: 298 K; 0.1 M NaClO4; none (4 mM HClO4 / 100 mM NaClO4); Zn(II)-bound peptide, mononuclear complex, Zn:peptide 1:1 (supplement captions state 0.9:1), peptide 0.5 mM
[7] = biological target: Glu5 (position 5, -…); settings: 298 K; 0.1 M NaClO4; none (4 mM HClO4 / 100 mM NaClO4); metal-free peptide, 0.5 mM, disordered
[8] = biological target: Nterm1 (position 1, -----HNKQEG); settings: 298 K; 0.1 M NaClO4; none (4 mM HClO4 / 100 mM NaClO4); metal-free peptide, 0.5 mM, disordered
[9] = biological target: Cterm29 (position 29, KGGKAH-----); settings: 298 K; 0.1 M NaClO4; none (4 mM HClO4 / 100 mM NaClO4); metal-free peptide, 0.5 mM, disordered
[10] = metal-free peptide, 0.5 mM, disordered

Protein | pKa [1] | pKa [2] | pKa [3] | pKa [4] | pKa ([5]; Cu(II)-bound peptide, mononuclear complex, Cu:peptide 1:1 (supplement captions state 0.9:1), peptide 0.5 mM) | pKa ([5]; Zn(II)-bound peptide, mononuclear complex, Zn:peptide 1:1 (supplement captions state 0.9:1), peptide 0.5 mM) | pKa [5, 10] | pKa [6] | pKa [7] | pKa [8] | pKa [9]
KQEGRDHDKSKGHFH [Sg-15, 15-residue fragment common to semenogelin I and semenogelin II (Homo sapiens)] | 10.40 | 2.34 | 4.36 | 9.52 | 6.82 | 6.88 | 7.58 | 10.59 | – | – | –
HNKQEGRDHDKSKGHFHRVVIHHKGGKAH [SgI-29, 29-residue fragment of semenogelin I (Homo sapiens)] | – | – | – | – | – | – | – | – | 3.74 | 9.45 | 2.18
KQEGRDHDKSKGHFHMIVIHHKGGQAHHG [SgIIA (SgII peptide A), 29-residue fragment of semenogelin II (Homo sapiens)] | – | – | 4.26 | – | – | – | 9.47 | – | – | – | –
